From article PMC3794858, “NECAP 1 Regulates AP-2 Interactions to Control Vesicle Size, Number, and Cargo During Clathrin-Mediated Endocytosis” (PLoS Biology, 2013)
Blank lines part the entries; values can stand above or below the binder they belong to. Where no end group is shown, it is not given here.

Columns and labels:
[1] = biological target: T1, 15N-labeled PHear (NECAP 1 PHear domain, GST cleaved) (mouse, UniProt Q9CR95 1-133); test: NMR; L47 peak
T1 chain: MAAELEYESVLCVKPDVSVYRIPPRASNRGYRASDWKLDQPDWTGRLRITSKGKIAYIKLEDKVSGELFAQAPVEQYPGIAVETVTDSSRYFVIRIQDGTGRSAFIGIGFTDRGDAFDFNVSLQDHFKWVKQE

[2] = biological target: T1, 15N-labeled PHear (NECAP 1 PHear …); test: NMR; I106 peak
[3] = biological target: T2, 15N-labeled PHear (NECAP 1 PHear domain, GST cleaved) (mouse, UniProt Q9CR95 1-133); test: NMR titration; 1H-15N HSQC of 15N-labeled PHear (0.15 mM) titrated with unlabeled peptide, 30°C, 25 mM sodium phosphate pH 7.2, 75 mM NaCl, 0.5 mM EDTA, 3 mM DTT; conditions: both partners purified
T2 construct: NECAP 1, PHear domain, residues 1-133; Uniformly 15N-labelled for NMR; source: E. coli BL21, purified (GST fusion cleaved with thrombin, S75 gel filtration)
T2 sequence (looked up): T1 chain

Kd [1]: 540 µM | Kd [2]: 420 µM | Kd [3]: 480 µM
B1: β2-linker peptide (Ac-SQGDLLGDLLNLDLPPVN) (peptide)
peptide: Ac-SQGDLLGDLLNLDLPPVN
notes: peptide from the linker of β2-adaptin; the printed peptide has no G there; also called unlabeled β2-linker; source: synthetic peptide (Sheldon Biotechnology Center, McGill University), HPLC purified

binding result [3]: binds
B2: AP180 FxDxF-motif peptide (Ac-VDIFGDAFAAS) (peptide)
peptide: Ac-VDIFGDAFAAS
notes: peptide derived from AP180; also called AP-180 peptide; FxDxF-motif peptide derived from AP180; source: synthetic peptide (Sheldon Biotechnology Center, McGill University), HPLC purified
